According to paper PMC11393453, “Phosphorylation of tau at a single residue inhibits binding to the E3 ubiquitin ligase, CHIP” (Nature Communications, 2024):
Read-outs that look alike come from different tables or passages of the source. Non-standard residues stand in square brackets, D forms with d. pS = N[C@@H](COP(=O)(O)O)C(=O)O

Legend:
[1] = tested on: CHIP; assay: NanoBiT live cell PPI assay (CHIP-tau split luciferase); type: cell-based; settings: 30 nM okadaic acid; HEK293 cells
Description: Fig. 1 Phosphorylation of tauC3 inhibits interaction with CHIP. A Cartoon schematic of the live-cell NanoBiT assay for measuring CHIP-tau PPIs (NanoBiT PDB = 7SNX; CHIP PDB = 2C2L). B Results of NanoBiT assays for CHIP interactions with tau proteoforms following treatment with okadaic acid (30 nM, 18 h) or DMSO control. Luminescence normalized to CHIP binding to FL 0N4R tau treated with vehicle (dashed line). Error bars represent standard deviation (SD). Statistical significance was determined by two-way ANOVA with Bonferroni’s post hoc analysis (n = 3 biological replicates). CTRL = mock transfected control. C Tau proteoforms binding to immobilized CHIP measured by ELISA. Assay was performed in technical triplicate and normalized to maximum absorbance at 450 nm. D Dissociation constants derived from (C). Error bars represent SD. E In vitro ubiquitination of tau proteoforms by CHIP. Samples were collected at the denoted timepoints, quenched in SDS-PAGE loading buffer, and analyzed by western blot. Assay was performed once.
Fig. 2 Phosphorylation of tauC3 Ser416 is sufficient to inhibit interaction with CHIP. A Cartoon depicting constructs used for mapping of inhibitory phosphorylation sites by NanoBiT live cell assays. B NanoBiT live cell assay for CHIP interactions with truncated tau constructs following treatment with okadaic acid (30 nM, 18 h) or DMSO control. Data are shown as the difference between okadaic acid treated samples and vehicle control. Error bars represent SD. Statistical significance was determined by two-sided, one-way ANOVA with Tukey’s post hoc analysis (n = 3 biological replicates). C Apparent change in melting temperatures (Tmapp) for CHIP incubated with DMSO control or Hsp70 C-terminal peptides, as determined by DSF. Error bars represent SD. (n = 4 technical replicates). D DSF experiments performed and analyzed as in the previous panel, but with tauC3-derived peptides. (n = 4 technical replicates). E Competition FP experiment showing displacement of fluorescent tracer from the CHIP TPR domain by various 10-mer Hsp70 or tauC3-derived peptides. Experiments were performed in technical quadruplicate. F Inhibition constants derived from (E). Error bars represent SD. G Tau proteoforms binding to immobilized CHIP, as measured by ELISA. Assay was performed in technical triplicate and normalized to maximum absorbance at 450 nm. H Dissociation constants derived from (G). Error bars represent SD.
CHIP-substrate NanoBiT PPI assay was performed as previously described. Briefly, HEK293T cells were seeded in poly-D-lysine coated 96-well plates (Corning, flat bottom, white opaque) in Opti-MEM. Cells were transfected with 50 ng each SmBiT/LgBiT DNA using Lipofectamine 3000 (Thermo Fisher) in Opti-MEM according to the manufacturer’s instructions. Transfections were performed for 24 h, after which the media was replaced with fresh Opti-MEM containing DMSO or 30 nM okadaic acid. Cells were incubated for an additional […] at 37 °C/5% CO2 in a humidified incubator. Following this incubation, 12.5 uL 1X Nano-Glo live cell luciferase reagent (Promega) diluted in LCS buffer (Promega) was added to each well, and samples were incubated for 10 min at room temperature in the dark to allow luminescence levels to stabilize. […] Un-transfected cells were used to obtain background measurements which were subtracted from observed luminescence values.

[2] = tested on: CHIP; assay: Differential scanning fluorimetry (DSF), CHIP WT with 10-mer peptides; type: binding, human; settings: CHIP + peptide, sheet S3B
Description: DSF was performed with a 10 µL assay volume in 384-well Axygen quantitative PCR plates (Fisher Sci) on a qTower[3] real-time PCR thermal cycler (Analytik Jena). […] Temperature was increased 1 °C per cycle. Each well contained 5 µM CHIP, 5× Sypro Orange dye (Thermo Fisher), and varying concentrations of peptide in DSF assay buffer (25 mM HEPES pH 7.4, 50 mM KCl, 1 mM TCEP, 0.2% CHAPS, 1%DMSO). Fluorescence intensity data was truncated between 30–60 °C, plotted relative to temperature, and fit to a Boltzmann Sigmoid in GraphPad Prism 9.0. CHIP apparent melting temp (Tmapp) was calculated based on the following equation:1 Y=Bottom+((Top−Bottom)/(1+exp(Tm−T/Slope)))

[3] = target: CHIP (C-terminus of Hsc70 interacting protein; STUB1) (UniProt Q9UNE7); assay: competition FP against fluorescent tracer; settings: reference: unmodified Hsp70 peptide; sites T636
[4] = target: CHIP (C-terminus of Hsc70 interacting protein; STUB1) (UniProt Q9UNE7); assay: differential scanning fluorimetry of CHIP
[5] = target: GFP-tagged tauC3 S416E, doxycycline-inducible in HEK293 Flp-In T-REx cells; assay: co-IP; tau immunoprecipitated with anti-Tau-5 and Protein A/G agarose from lysates of HEK293 Flp-In T-REx GFP-tau cells (25 mM Tris-HCl pH 7.4, 150 mM NaCl, 1 mM EDTA, 1% NP-40); co-precipitated endogenous CHIP by western blot
[6] = target: CHIP (C-terminus of Hsc70 interacting protein; STUB1), recombinant human, full-length (human) (UniProt Q9UNE7)
[7] = target: CHIP (C-terminus of Hsc70 interacting protein; STUB1) (UniProt Q9UNE7); assay: tau IP (Tau-5), CHIP western blot; settings: reference: GFP-tauC3 WT; sites S416
[8] = target: CHIP (C-terminus of Hsc70 interacting protein; STUB1), recombinant human, full-length (human) (UniProt Q9UNE7); remark: listed apart in the source
[9] = target: T1, CHIP (C-terminus of Hsc70 interacting protein; STUB1), recombinant human, full-length (human, UniProt Q9UNE7 1-303); assay: fluorescence polarisation; competition: CHIP 1.58 µM + fluorescent tracer 20 nM, peptide competitor in three-fold dilutions, 25 mM HEPES pH 7.4, 50 mM KCl, 0.01% Triton X-100, DMSO; Ki calculated from IC50; settings: both partners purified
T1 construct: CHIP (STUB1), human, E3 ubiquitin ligase; Used in ELISA, DSF and FP; the FP legends speak of the CHIP TPR domain, the FP methods only of CHIP; also called WT CHIP; source: E. coli BL21DE3, purified (Ni-NTA, TEV cleavage, SEC); not shown: His6, N-terminal, cleaved
T1 sequence (looked up): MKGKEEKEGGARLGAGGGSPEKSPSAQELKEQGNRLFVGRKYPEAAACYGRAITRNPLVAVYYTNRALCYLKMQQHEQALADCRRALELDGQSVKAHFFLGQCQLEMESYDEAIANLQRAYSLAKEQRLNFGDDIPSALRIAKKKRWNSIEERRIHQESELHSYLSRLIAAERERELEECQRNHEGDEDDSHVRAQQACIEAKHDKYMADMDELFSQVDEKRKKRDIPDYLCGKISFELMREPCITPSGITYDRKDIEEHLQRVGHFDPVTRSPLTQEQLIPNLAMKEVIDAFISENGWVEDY

[10] = target: T2, CHIP D134A (human, UniProt Q9UNE7 1-303, D134A); assay: as above; settings: both partners purified
T2 construct: CHIP (STUB1) with Asp134 mutated to alanine; also called D134A CHIP
T2 sequence (looked up): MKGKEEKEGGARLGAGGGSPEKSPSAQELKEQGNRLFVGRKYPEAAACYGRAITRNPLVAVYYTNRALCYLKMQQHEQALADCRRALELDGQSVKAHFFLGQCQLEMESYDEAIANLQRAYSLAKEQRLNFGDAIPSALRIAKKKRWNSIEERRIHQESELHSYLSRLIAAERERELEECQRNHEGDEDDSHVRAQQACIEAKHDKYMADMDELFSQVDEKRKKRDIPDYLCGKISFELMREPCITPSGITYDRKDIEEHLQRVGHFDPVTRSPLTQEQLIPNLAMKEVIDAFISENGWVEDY

[11] = target: T3, CHIP F131A (human, UniProt Q9UNE7 1-303, F131A); assay: differential scanning fluorimetry; 5 µM CHIP, 5x Sypro Orange, varying concentrations of peptide in 25 mM HEPES pH 7.4, 50 mM KCl, 1 mM TCEP, 0.2% CHAPS, 1% DMSO; apparent melting temperature (Tmapp) of CHIP; settings: both partners purified
T3 construct: CHIP (STUB1) with Phe131 mutated to alanine
T3 sequence (looked up): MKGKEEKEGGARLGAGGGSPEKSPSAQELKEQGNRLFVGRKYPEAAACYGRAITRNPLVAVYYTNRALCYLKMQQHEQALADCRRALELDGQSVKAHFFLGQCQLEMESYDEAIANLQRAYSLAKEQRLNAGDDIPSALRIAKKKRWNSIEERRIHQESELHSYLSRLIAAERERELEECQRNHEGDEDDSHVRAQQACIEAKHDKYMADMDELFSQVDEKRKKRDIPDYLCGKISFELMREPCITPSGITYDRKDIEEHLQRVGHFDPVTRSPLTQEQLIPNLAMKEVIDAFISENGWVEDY

[12] = target: T2, CHIP D134A; assay: as above; settings: both partners purified
[13] = reference: unmodified tauC3 peptide, sites S416

Molecule: C=C1[C@@H](O)[C@@H]2O[C@]3(CC[C@H](/C=C/[C@@H](C)[C@@H]4CC(C)=C[C@@]5(O[C@H](C[C@@](C)(O)C(=O)O)CC[C@H]5O)O4)O3)CC[C@H]2O[C@@H]1[C@@H](O)C[C@H](C)[C@H]1O[C@@]2(CCCCO2)CC[C@H]1C [okadaic acid, reference compound]
- effect on CHIP interaction with FL tau [1]: enhanced CHIP’s interaction with FL tau
- effect on CHIP interaction with tauC3 [1]: significantly lessened the interaction with tauC3

Molecule: ESTGSIDMVD [tauC3 S412E, 10-mer tauC3 phosphomimetic peptide]
- Tm(app) derived from DSF curves ([2]; replicate 1): 50.23
- Tm(app) derived from DSF curves ([2]; replicate 2): 50.09
- Tm(app) derived from DSF curves ([2]; replicate 3): 49.65
- Tm(app) derived from DSF curves ([2]; replicate 4): 49.78

Molecule: Hsp70 (HSPA1A) C-terminal 10mer (from UniProt P0DMV8) pT636 peptide
- binding against the reference [3]: weaker
- binding against the reference ([4]; reference: unmodified Hsp70 peptide, sites T636): weaker

Molecule: SETGSIDMVD [tauC3 S413E, 10-mer tauC3 phosphomimetic peptide]
- Tm(app) derived from DSF curves ([2]; replicate 1): 50.06
- Tm(app) derived from DSF curves ([2]; replicate 2): 50.15
- Tm(app) derived from DSF curves ([2]; replicate 3): 49.96
- Tm(app) derived from DSF curves ([2]; replicate 4): 49.5

Molecule: SSEGSIDMVD [tauC3 T414E, 10-mer tauC3 phosphomimetic peptide]
- Tm(app) derived from DSF curves ([2]; replicate 1): 49.33
- Tm(app) derived from DSF curves ([2]; replicate 2): 49.12
- Tm(app) derived from DSF curves ([2]; replicate 3): 49.22
- Tm(app) derived from DSF curves ([2]; replicate 4): 48.96

Molecule: endogenous CHIP (from UniProt Q9UNE7 1-303) (enzyme)
- relative amount of co-immunoprecipitated CHIP [5]: 0.55

Molecule: p.tauC3, natively phosphorylated tauC3 from Sf9 insect cells (domain or fragment)
- Kd [6]: 700 nM

Molecule: tau (MAPT/tau; tauC3, FL 0N4R tau) C-terminal 10-mer of tauC3, ends at D421 (from UniProt P10636-8) S416E peptide (Ac-…-OH)
- other: CHIP Tmapp [4, 13]: weaker; reference 48.81 ± 0.11

Molecule: tau (MAPT/tau; tauC3, FL 0N4R tau) C-terminal 10-mer of tauC3, ends at D421 (from UniProt P10636-8) pS416 peptide
- binding against the reference [4, 13]: weaker

Molecule: tau (MAPT/tau; tauC3, FL 0N4R tau) tauC3, ends at D421 (from UniProt P10636-8) GFP-tauC3 S416E
- other: relative amount of co-IP CHIP [7]: 0.55

Molecule: tauC3 S416E, recombinant protein with a single phosphomimetic mutation (domain or fragment)
- Kd [8]: 780 nM

Molecule: tauC3, unmodified recombinant (0N4R tau cleaved at D421) (domain or fragment)
- Kd [6]: 190 nM
- Kd [8]: 90 nM

B1: tauC3 C-terminal 10-mer peptide Ac-SSTGSIDMVD-OH (peptide)
peptide: Ac-SSTGSIDMVD-OH
notes: C-terminus of tauC3 (tau ending at D421); numbers count on: the 2N4R-tau splice isoform; also called WT tauC3 peptide; WT tauC3; source: synthetic peptide
- Ki [9]: 150 nM
- Ki [10]: 5570 nM
- binding result [11]: binds

B2: tauC3 S416E phosphomimetic 10-mer peptide Ac-SSTGEIDMVD-OH (peptide)
peptide: Ac-SSTGEIDMVD-OH
notes: C-terminus of tauC3 with S416 replaced by glutamic acid; numbers count on: the 2N4R-tau splice isoform; also called tauC3 S416E peptide; pS416 phosphomimetic; source: synthetic peptide
- Ki [9]: 2410 nM
- binding result [12]: binds
- binding result [11]: binds

B3: tauC3 pS416 10-mer peptide (peptide)
peptide: Ac-SSTG[pS]IDMVD-OH
notes: C-terminal 10-mer of tauC3 with a bona fide phosphoserine at the S416 position; numbers count on: the 2N4R-tau splice isoform; also called phosphorylated tauC3 peptide; source: synthetic peptide (Genscript)
- Ki [9]: 1010 nM
- Ki [10]: 1840 nM
